# Residue numbers refer to the chain shown, from its start. Numbers in names are those of the source.
# B1: anti-CROP gastrobody G9 (designed binder, not shown: small tags and cut ends)
# chain: DFVLDNEGNPLENGGTYYILSHPDLFGGIRAAPTGNERCPLTVVQSLYLFDKGIGTIISSPYRIRFIAEGHPLSLKFDSFAVIMLCVGIPTEWSVVEDLPEGPAVKIGENKDAMDGWFRLERVSDDEFNNYKLVFCPQQAEDDKCGDIGISIDHDDGTRRLVVSKNKPLVVQFQKLDKESL
# B2: anti-CROP gastrobody T12 (designed binder, not shown: small tags and cut ends)
# chain: B1 chain with H22I, P23A, D24G, L25T, Y48V, L49F, F50P
# notes: also called anti-CROP clone T12; anti-CROP (T12)
# B3: anti-CROP gastrobody T42 (designed binder, not shown: small tags and cut ends)
# chain: B1 chain with H22V, D24H, L25Q, L47R, Y48N, L49K, F50W
# B4: anti-CROP gastrobody G22 (designed binder, not shown: small tags and cut ends)
# chain: B1 chain with H22L, P23Q, D24N, L25R, L47H, Y48D, L49F, F50M
# B5: anti-GTD gastrobody GT47 (designed binder, not shown: small tags and cut ends)
# chain: DFVLDNEGNPLENGGTYYILSDYGRQLFGGIRAAPTGNERCPLTVVQSLFRNHRDKGIGTIISSPYRIRFIAEGHPLSLKFDSFAVIMLCVGIPTEWSVVEDLPEGPAVKIGENKDAMDGWFRLERVRPTSSTGNNYKLVFCPQQAEDDKCGDIGISIDHDDGTRRLVVSKNKPLVVQFQKLDKESL
# B6: anti-GTD gastrobody GT01 (designed binder, not shown: small tags and cut ends)
# chain: DFVLDNEGNPLENGGTYYILSDYGRQLFGGIRAAPTGNERCPLTVVQSLFRNHRDKGIGTIISSPYRIRFIAEGHPLSLKFDSFAVIMLCVGIPTEWSVVEDLPEGPAVKIGENKDAMDGWFRLERVSDDEFNNYKLVFCPQQAEDDKCGDIGISIDHDDGTRRLVVSKNKPLVVQFQKLDKESL
# notes: also called anti-GTD (GT01); His6-Thrombin site-SpyTag003-GT01
# B7: GT01 R63A (designed binder, not shown: small tags and cut ends)
# chain: B6 chain with R67A
# B8: anti-GTD gastrobody GT44 (designed binder, not shown: small tags and cut ends)
# chain: B6 chain with S128N, D129P, D130S, E131N, F132G
# Tests used:
# [1] = target: T1, combined repetitive oligopeptide domain of C. difficile toxin A (residues 2304-2710, CROP) (Clostridium difficile, UniProt P16154 2304-2710); assay: SPR, equilibrium analysis, biotinylated AviTag-His6-CROP captured on the chip
# T1 construct: range 2304-2710; also called AviTag-His6-CROP; TcdA CROP
# [2] = target: T2, C. difficile toxin B glucosyltransferase domain (GTD, residues 2-543) (Clostridium difficile, UniProt P18177 2-543); assay: ELISA on antigen-coated wells, anti-SBTI antibody detection
# T2 construct: range 2-543; also called AviTag-His6-GTD; TcdB GTD
# hen egg lysozyme (HEL) = hen egg lysozyme (HEL) (hen, UniProt P00698 19-147); assay: ELISA, antigen-coated wells, 500 nM gastrobody, detected with polyclonal anti-SBTI antibody
# [3] = target: T2, C. difficile toxin B …; assay: SPR, immobilised GTD
# [4] = target: T2, C. difficile toxin B …; assay: SPR, immobilised GTD; remark: listed apart in the source
# [5] = target: T2, C. difficile toxin B …
# [6] = target: T1, combined repetitive oligopeptide domain …; assay: ELISA on antigen-coated wells, anti-SBTI antibody detection
# [7] = target: T2, C. difficile toxin B …; assay: SPR, kinetic analysis, biotinylated AviTag-His6-GTD captured on the chip
# trypsin = target: T3, trypsin (cow, UniProt P00760 24-246); assay: plate assay, trypsin-coated wells, bound gastrobody detected with biotinylated GTD and streptavidin-HRP
# T3 construct: also called trypsin from cow pancreas (T1426, Merck)
# [8] = target: T2, C. difficile toxin B …; assay: SPR, GTD
binder,measurement,setting,value
B1,Kd,[1],4600 nM
B2,binding result,[2],no binding (tested: 500 nM gastrobody)
same,Kd,[1],1700 nM
same,binding result,hen egg lysozyme (HEL),no binding (tested: 500 nM)
B3,Kd,[1],7300 nM
B4,Kd,[1],~50000 nM
B5,fold improvement of affinity against GT01,[3],~8 fold
same,Kd,[4],10.3 nM
same,koff,[4],0.022 s⁻¹
same,kon,[4],2.1e+06 M⁻¹ s⁻¹
B6,EC50 (read off the curve),[5],~7 nM
same,binding result,[6],no binding (tested: 500 nM gastrobody)
same,Kd,[7],85 nM
same,koff,[7],0.036 s⁻¹
same,kon,[7],420000 M⁻¹ s⁻¹
same,binding result,hen egg lysozyme (HEL),no binding (tested: 500 nM)
same,EC50 (read off the curve),trypsin,~20 nM
B7,Kd,[8],78.7 nM
same,binding result,trypsin,no binding (tested: 200 nM)
B8,Kd,[4],17.4 nM
same,koff,[4],0.022 s⁻¹
same,kon,[4],1.3e+06 M⁻¹ s⁻¹
